T1: human NKG2D-Fc fusion protein (human, UniProt P26718 73-216)
T1 construct: extracellular domain; also called recombinant human NKG2D-Fc; human recombinant NKG2D; not shown: human IgG1 Fc domain
T1 sequence (looked up): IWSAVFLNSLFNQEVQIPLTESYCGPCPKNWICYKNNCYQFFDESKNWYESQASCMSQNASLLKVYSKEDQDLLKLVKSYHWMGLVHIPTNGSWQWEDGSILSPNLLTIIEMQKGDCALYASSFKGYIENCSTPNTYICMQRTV

T2: cynomolgus NKG2D-Fc fusion protein (cynomolgus; human, UniProt P61252 73-216)
T2 construct: extracellular domain; also called cynomolgus recombinant NKG2D-Fc; cynomolgus recombinant NKG2D; not shown: human IgG1 Fc domain
T2 sequence (looked up): T1 sequence (looked up) with D43N, T133I

T3: mouse NKG2D-Fc fusion protein (mouse; human, UniProt O54709 90-232)
T3 construct: extracellular domain; also called mouse recombinant NKG2D-Fc; recombinant mouse NKG2D-Fc; not shown: human IgG1 Fc domain
T3 sequence (looked up): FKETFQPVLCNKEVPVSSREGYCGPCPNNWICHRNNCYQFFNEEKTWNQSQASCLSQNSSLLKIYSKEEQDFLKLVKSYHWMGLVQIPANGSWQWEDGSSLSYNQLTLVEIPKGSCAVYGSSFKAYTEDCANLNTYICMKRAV

B1: ADI-29426 (antibody, V domains shown)
VH: QVQLQQWGAGLLKPSETLSLTCAVYGGSFSGYYWSWIRQPPGKGLEWIGEIDHSGSTNYNPSLKSRVTISVDTSKNQFSLKLSSVTAADTAVYYCARARGPWSFDPWGQGTLVTVSS
VL: DIQMTQSPSTLSASVGDRVTITCRASQSIGSWLAWYQQKPGKAPKLLIYKASSLESGVPSRFSGSGSGTEFTLTISSLQPDDFATYYCQQYHSFPTFGGGTKVEIK
B2: ADI-27724 (antibody, V domains shown)
VH: B1 VH
VL: not shown
B3: ADI-29447 (antibody, V domains shown)
VH: B1 VH
VL: B1 VL with G30S, H92D, S93T, P95I
notes: also called F47
B4: ADI-29379 (antibody, V domains shown)
VH: QVQLVQSGAEVKKPGASVKVSCKASGYTFTSYYMHWVRQAPGQGLEWMGIINPSGGSTSYAQKFQGRVTMTRDTSTSTVYMELSSLRSEDTAVYYCARGAPNYGDTTHDYYYMDVWGKGTTVTVSS
VL: EIVMTQSPATLSVSPGERATLSCRASQSVSSNLAWYQQKPGQAPRLLIYGASTRATGIPARFSGSGSGTEFTLTISSLQSEDFAVYYCQQYDDWPFTFGGGTKVEIK
notes: also called E79
B5: ADI-29378 (antibody, V domains shown)
VH: QVQLVQSGAEVKKPGASVKVSCKASGYTFTSYYMHWVRQAPGQGLEWMGIINPSGGSTSYAQKFQGRVTMTRDTSTSTVYMELSSLRSEDTAVYYCAREGAGFAYGMDYYYMDVWGKGTTVTVSS
VL: B4 VL with M4L, V13L, N32Y, G50D, T53N, E70D, Q79E, S80P, Y91S, D93N
notes: also called E78
B6: ADI-27744 (antibody, V domains shown)
VH: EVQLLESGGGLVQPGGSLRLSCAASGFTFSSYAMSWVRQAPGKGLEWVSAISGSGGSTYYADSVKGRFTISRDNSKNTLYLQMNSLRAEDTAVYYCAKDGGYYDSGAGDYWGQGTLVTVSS
VL: DIQMTQSPSSVSASVGDRVTITCRASQGIDSWLAWYQQKPGKAPKLLIYAASSLQSGVPSRFSGSGSGTDFTLTISSLQPEDFATYYCQQGVSYPRTFGGGTKVEIK
notes: also called A44
B7: ADI-27749 (antibody, V domains shown)
VH: EVQLVESGGGLVKPGGSLRLSCAASGFTFSSYSMNWVRQAPGKGLEWVSSISSSSSYIYYADSVKGRFTISRDNAKNSLYLQMNSLRAEDTAVYYCARGAPMGAAAGWFDPWGQGTLVTVSS
VL: B6 VL with D30S, Y94F
notes: also called A49

Changes are numbered by the printed parent chain.

In one experiment the target is T1, human NKG2D-Fc fusion protein. Put plainly: ELISA on coated NKG2D-Fc. (In general: In an ELISA, binding on a coated surface is turned into a signal by an enzyme label.)
With B1, the binding result is recorded as “binds”.
Still for that read-out and setting: next, B2: “binds”; B3: “binds”.
The same measure, in the same setting: with B4 the entry was “binds”.
On the same count and under the same terms, next, B5: “binds”; B6: “binds”.
For the molecule B7, the binding result is recorded as “binds”.

For a further experiment, the target named is T2, cynomolgus NKG2D-Fc fusion protein. Put plainly: ELISA on coated NKG2D-Fc.
With B1, the binding result is on record as “binds”.
Still for that read-out and setting: next, B2: “binds”; B3: “binds”.
On the same count and under the same terms, with B4 the entry was “binds”; with B5, “binds”; with B6, “binds”.
The same measure, in the same setting: next, B7: “binds”.

The next experiment has as its target T3, mouse NKG2D-Fc fusion protein. Put plainly: ELISA on coated NKG2D-Fc.
Regarding B1, the binding result is “binds”.
The same measure, in the same setting: next, B2: “binds”; B3: “binds”; B4: “binds”.
On the same count and under the same terms, with B5 the entry was “binds”.
On the same count and under the same terms, with B6 the entry was “binds”; with B7, “binds”.

The record behind these values is US20210261668A1 (DRAGONFLY THERAPEUTICS, published 2021).
